± gives the uncertainty stated by the source.

The chains are these.
B1: Far upstream element-binding protein 3, residues 75 to 150; numbered along this chain, Q96I24 (parent)
chain: RTVITEEFKVPDKMVGFIIGRGGEQISRIQAESGCKIQIASESSGIPERPCVLTGTPESIEQAKRLLGQIVDRCRN

This data set covers variants of B1. As to the kind of experiment: abundance fitness (aPCA) (normalised: wild type 0, dead -1); higher = more abundant; growth selection in yeast, the domain comes from the species named. The settings on record: Homo sapiens.
With RTVITEEFKVPDKMVGFIIGRGGEQISRIQAESGCKIQIACESSGIPERPCVLTGTPESIEQAKRLLGQIVDRCRN [S41C], the abundance fitness was -0.026 ± 0.044.
Under RTVITEEFKVPDKMVGFIIGRGGEQISRIQAESGCKIQIAPESSGIPERPCVLTGTPESIEQAKRLLGQIVDRCRN [S41P] stands -0.027 ± 0.041; under RTVITEEFKVPDKMVGFIIGRGGEQISRIQAESGCKIQIADESSGIPERPCVLTGTPESIEQAKRLLGQIVDRCRN [S41D], -0.06 ± 0.044; under RTVITEEFKVPDKMVGFIIGRGGEQISRIQAESGCKIQIAAESSGIPERPCVLTGTPESIEQAKRLLGQIVDRCRN [S41A], -0.035 ± 0.031.
With RTVITEEFKVPDKMVGFIIGRGGEQISRIQAESGCKIQIATESSGIPERPCVLTGTPESIEQAKRLLGQIVDRCRN [S41T], the abundance fitness is -0.02 ± 0.038.
For RTVITEEFKVPDKMVGFIIGRGGEQISRIQAESGCKIQIAFESSGIPERPCVLTGTPESIEQAKRLLGQIVDRCRN [S41F], the abundance fitness is -0.176 ± 0.059.
On to RTVITEEFKVPDKMVGFIIGRGGEQISRIQAESGCKIQIAQESSGIPERPCVLTGTPESIEQAKRLLGQIVDRCRN [S41Q], for which the abundance fitness stood at 0.012 ± 0.041.
On to RTVITEEFKVPDKMVGFIIGRGGEQISRIQAESGCKIQIANESSGIPERPCVLTGTPESIEQAKRLLGQIVDRCRN [S41N], for which the abundance fitness is 0.022 ± 0.057.
As to RTVITEEFKVPDKMVGFIIGRGGEQISRIQAESGCKIQIAHESSGIPERPCVLTGTPESIEQAKRLLGQIVDRCRN [S41H], the abundance fitness is -0.099 ± 0.089.
Next, RTVITEEFKVPDKMVGFIIGRGGEQISRIQAESGCKIQIARESSGIPERPCVLTGTPESIEQAKRLLGQIVDRCRN [S41R]: 0.032 ± 0.027; RTVITEEFKVPDKMVGFIIGRGGEQISRIQAESGCKINIASESSGIPERPCVLTGTPESIEQAKRLLGQIVDRCRN [Q38N]: -0.086 ± 0.066; RTVITEEFKVPDKMVGFIIGRGGEQISRIQAESGCKIEIASESSGIPERPCVLTGTPESIEQAKRLLGQIVDRCRN [Q38E]: -0.013 ± 0.035.
Next, RTVITEEFKVPDKMVGFIIGRGGEQISRIQAESGCKITIASESSGIPERPCVLTGTPESIEQAKRLLGQIVDRCRN [Q38T]: -0.047 ± 0.044.
Next, RTVITEEFKVPDKMVGFIIGRGGEQISRIQAESGCKIHIASESSGIPERPCVLTGTPESIEQAKRLLGQIVDRCRN [Q38H]: -0.059 ± 0.062.
For the variant RTVITEEFKVPDKMVGFIIGRGGEQISRIQAESGCKIFIASESSGIPERPCVLTGTPESIEQAKRLLGQIVDRCRN [Q38F], the abundance fitness was -0.1 ± 0.098.
Under RTVITEEFKVPDKMVGFIIGRGGEQISRIQAESGCKICIASESSGIPERPCVLTGTPESIEQAKRLLGQIVDRCRN [Q38C] stands -0.053 ± 0.048; under RTVITEEFKVPDKMVGFIIGRGGEQISRIQAESGCKIMIASESSGIPERPCVLTGTPESIEQAKRLLGQIVDRCRN [Q38M], -0.101 ± 0.043.
Under RTVITEEFKVPDKMVGFIIGRGGEQISRIQAESGCKIRIASESSGIPERPCVLTGTPESIEQAKRLLGQIVDRCRN [Q38R] stands -0.055 ± 0.027; under RTVITEEFKVPDKMVGFIIGRGGEQISRIQAESGCKIYIASESSGIPERPCVLTGTPESIEQAKRLLGQIVDRCRN [Q38Y], -0.172 ± 0.077; under RTVITEEFKVPDKMVGFIIGRGGEQISRIQAESGCKIIIASESSGIPERPCVLTGTPESIEQAKRLLGQIVDRCRN [Q38I], -0.098 ± 0.075.
Under RTVITEEFKVPDKMVGFIIGRGGEQISRIQAESGCKIAIASESSGIPERPCVLTGTPESIEQAKRLLGQIVDRCRN [Q38A] stands -0.038 ± 0.031; under RTVITEEFKVPDKMVGFIIGRGGEQISRIQAESGCKISIASESSGIPERPCVLTGTPESIEQAKRLLGQIVDRCRN [Q38S], -0.06 ± 0.035; under RTVITEEFKVPDKMVGFIIGRGGEQISRIQAESGCKIVIASESSGIPERPCVLTGTPESIEQAKRLLGQIVDRCRN [Q38V], -0.007 ± 0.028.
As for RTVITEEFKVPDKMVGFIIGRGGEQISRIQAESGCKIDIASESSGIPERPCVLTGTPESIEQAKRLLGQIVDRCRN [Q38D], the abundance fitness was -0.092 ± 0.047.
Next, RTVITEEFKVPDKMVGFIIGRGGEQISRIQAESGCKIPIASESSGIPERPCVLTGTPESIEQAKRLLGQIVDRCRN [Q38P]: -0.829 ± 0.074; RTVITEEFKVPDKMVGFIIGRGGEQISRIQAESGCKIKIASESSGIPERPCVLTGTPESIEQAKRLLGQIVDRCRN [Q38K]: -0.022 ± 0.05; RTVITEEFKVPDKMVGFIIGRGGEQISRIQAESGCKIGIASESSGIPERPCVLTGTPESIEQAKRLLGQIVDRCRN [Q38G]: -0.105 ± 0.024.
In the case of RTVITEEFKVPDKMVGFIIGRGGEQISRIQAESGCKIWIASESSGIPERPCVLTGTPESIEQAKRLLGQIVDRCRN [Q38W], the abundance fitness is -0.107 ± 0.032.
In the case of RTVITEEFKVPDKMVGFIIGRGGEQISRIQAESGCKPQIASESSGIPERPCVLTGTPESIEQAKRLLGQIVDRCRN [I37P], the abundance fitness was -0.609 ± 0.048.
In the case of RTVITEEFKVPDKMVGFIIGRGGEQISRIQAESGCKRQIASESSGIPERPCVLTGTPESIEQAKRLLGQIVDRCRN [I37R], the abundance fitness was -0.73 ± 0.03.
Turning to RTVITEEFKVPDKMVGFIIGRGGEQISRIQAESGCKYQIASESSGIPERPCVLTGTPESIEQAKRLLGQIVDRCRN [I37Y], the abundance fitness is -0.799 ± 0.088.
Under RTVITEEFKVPDKMVGFIIGRGGEQISRIQAESGCKSQIASESSGIPERPCVLTGTPESIEQAKRLLGQIVDRCRN [I37S] stands -0.658 ± 0.037; under RTVITEEFKVPDKMVGFIIGRGGEQISRIQAESGCKQQIASESSGIPERPCVLTGTPESIEQAKRLLGQIVDRCRN [I37Q], -0.665 ± 0.048.
Under RTVITEEFKVPDKMVGFIIGRGGEQISRIQAESGCKNQIASESSGIPERPCVLTGTPESIEQAKRLLGQIVDRCRN [I37N] stands -0.69 ± 0.077; under RTVITEEFKVPDKMVGFIIGRGGEQISRIQAESGCKTQIASESSGIPERPCVLTGTPESIEQAKRLLGQIVDRCRN [I37T], -0.505 ± 0.047; under RTVITEEFKVPDKMVGFIIGRGGEQISRIQAESGCKWQIASESSGIPERPCVLTGTPESIEQAKRLLGQIVDRCRN [I37W], -0.955 ± 0.044.

Source of the values: the Human Domainome abundance scans (Beltran et al. 2025).
